Data reported in patent US20230158141A1 (YAFEI SHANGHAI BIOLOG MEDICINE SCIENCE AND TECHNOLOGY, published 2023).

T1: IL-10R1-Fc (UniProt Q13651 22-235, limits assumed)
T1 sequence (looked up): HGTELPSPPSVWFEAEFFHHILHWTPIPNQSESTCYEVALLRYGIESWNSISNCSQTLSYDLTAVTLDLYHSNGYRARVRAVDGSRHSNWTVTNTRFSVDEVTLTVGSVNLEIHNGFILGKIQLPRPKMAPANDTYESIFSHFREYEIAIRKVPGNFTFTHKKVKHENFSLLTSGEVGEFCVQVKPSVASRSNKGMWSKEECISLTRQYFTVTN

B1: IL-10 Thr6Cys-R4-7 (ligand, human, UniProt P22301 19-178, looked up)
chain: SPGQGCQSENSCTHFPGNLPNMLRDLRDAFSRVKTFFQMKDQLDNLLLKESLLEDFKGYLGCQALSEMIQFYLEEVMPQAENQDPDIKAHVNSLGENLKTLRLRLRRCHRFLPCENKSKAVEQVKNAFNKLQEKGIYKAMSEFDIFINYIEAYMTMKIRN
modifications: R4-7 on Cys 6
notes: mature
B2: IL-10 Asn45Cys-R4-18 (ligand, human, UniProt P22301 19-178, looked up)
chain: SPGQGTQSENSCTHFPGNLPNMLRDLRDAFSRVKTFFQMKDQLDCLLLKESLLEDFKGYLGCQALSEMIQFYLEEVMPQAENQDPDIKAHVNSLGENLKTLRLRLRRCHRFLPCENKSKAVEQVKNAFNKLQEKGIYKAMSEFDIFINYIEAYMTMKIRN
modifications: R4-18 on Cys 45
notes: mature
B3: IL-10 Gln42Cys-S48 (ligand, human, UniProt P22301 19-178, looked up)
chain: SPGQGTQSENSCTHFPGNLPNMLRDLRDAFSRVKTFFQMKDCLDNLLLKESLLEDFKGYLGCQALSEMIQFYLEEVMPQAENQDPDIKAHVNSLGENLKTLRLRLRRCHRFLPCENKSKAVEQVKNAFNKLQEKGIYKAMSEFDIFINYIEAYMTMKIRN
modifications: S48 on Cys 42
notes: mature
B4: IL-10 Asp28Cys-R4-11 (ligand, human, UniProt P22301 19-178, looked up)
chain: SPGQGTQSENSCTHFPGNLPNMLRDLRCAFSRVKTFFQMKDQLDNLLLKESLLEDFKGYLGCQALSEMIQFYLEEVMPQAENQDPDIKAHVNSLGENLKTLRLRLRRCHRFLPCENKSKAVEQVKNAFNKLQEKGIYKAMSEFDIFINYIEAYMTMKIRN
modifications: R4-11 on Cys 28
notes: mature
B5: IL-10 Gln42Cys-R4-19 (ligand, human, UniProt P22301 19-178, looked up)
chain: SPGQGTQSENSCTHFPGNLPNMLRDLRDAFSRVKTFFQMKDCLDNLLLKESLLEDFKGYLGCQALSEMIQFYLEEVMPQAENQDPDIKAHVNSLGENLKTLRLRLRRCHRFLPCENKSKAVEQVKNAFNKLQEKGIYKAMSEFDIFINYIEAYMTMKIRN
modifications: R4-19 on Cys 42
notes: mature
B6: IL-10 Asp41Cys-R4-11 (ligand, human, UniProt P22301 19-178, looked up)
chain: SPGQGTQSENSCTHFPGNLPNMLRDLRDAFSRVKTFFQMKCQLDNLLLKESLLEDFKGYLGCQALSEMIQFYLEEVMPQAENQDPDIKAHVNSLGENLKTLRLRLRRCHRFLPCENKSKAVEQVKNAFNKLQEKGIYKAMSEFDIFINYIEAYMTMKIRN
modifications: R4-11 on Cys 41
notes: mature
B7: IL-10 Arg27Cys-S48 (ligand, human, UniProt P22301 19-178, looked up)
chain: SPGQGTQSENSCTHFPGNLPNMLRDLCDAFSRVKTFFQMKDQLDNLLLKESLLEDFKGYLGCQALSEMIQFYLEEVMPQAENQDPDIKAHVNSLGENLKTLRLRLRRCHRFLPCENKSKAVEQVKNAFNKLQEKGIYKAMSEFDIFINYIEAYMTMKIRN
modifications: S48 on Cys 27
notes: mature
B8: IL-10 Asn148Cys-R4-18 (ligand, human, UniProt P22301 19-178, looked up)
chain: SPGQGTQSENSCTHFPGNLPNMLRDLRDAFSRVKTFFQMKDQLDNLLLKESLLEDFKGYLGCQALSEMIQFYLEEVMPQAENQDPDIKAHVNSLGENLKTLRLRLRRCHRFLPCENKSKAVEQVKNAFNKLQEKGIYKAMSEFDIFICYIEAYMTMKIRN
modifications: R4-18 (printed R418) on Cys 148
notes: mature
B9: IL-10 Gln38Cys-S48 (ligand, human, UniProt P22301 19-178, looked up)
chain: SPGQGTQSENSCTHFPGNLPNMLRDLRDAFSRVKTFFCMKDQLDNLLLKESLLEDFKGYLGCQALSEMIQFYLEEVMPQAENQDPDIKAHVNSLGENLKTLRLRLRRCHRFLPCENKSKAVEQVKNAFNKLQEKGIYKAMSEFDIFINYIEAYMTMKIRN
modifications: S48 on Cys 38
notes: mature
B10: IL-10 Gln38Cys-R4-19 (ligand, human, UniProt P22301 19-178, looked up)
chain: SPGQGTQSENSCTHFPGNLPNMLRDLRDAFSRVKTFFCMKDQLDNLLLKESLLEDFKGYLGCQALSEMIQFYLEEVMPQAENQDPDIKAHVNSLGENLKTLRLRLRRCHRFLPCENKSKAVEQVKNAFNKLQEKGIYKAMSEFDIFINYIEAYMTMKIRN
modifications: R4-19 on Cys 38
notes: mature
B11: IL-10 Asp25Cys-R4-12 (ligand, human, UniProt P22301 19-178, looked up)
chain: SPGQGTQSENSCTHFPGNLPNMLRCLRDAFSRVKTFFQMKDQLDNLLLKESLLEDFKGYLGCQALSEMIQFYLEEVMPQAENQDPDIKAHVNSLGENLKTLRLRLRRCHRFLPCENKSKAVEQVKNAFNKLQEKGIYKAMSEFDIFINYIEAYMTMKIRN
modifications: R4-12 on Cys 25
notes: mature
B12: IL-10 Arg27Cys-R4-20 (ligand, human, UniProt P22301 19-178, looked up)
chain: SPGQGTQSENSCTHFPGNLPNMLRDLCDAFSRVKTFFQMKDQLDNLLLKESLLEDFKGYLGCQALSEMIQFYLEEVMPQAENQDPDIKAHVNSLGENLKTLRLRLRRCHRFLPCENKSKAVEQVKNAFNKLQEKGIYKAMSEFDIFINYIEAYMTMKIRN
modifications: R4-20 on Cys 27
notes: mature
B13: IL-10 Glu142Cys-R4-12 (ligand, human, UniProt P22301 19-178, looked up)
chain: SPGQGTQSENSCTHFPGNLPNMLRDLRDAFSRVKTFFQMKDQLDNLLLKESLLEDFKGYLGCQALSEMIQFYLEEVMPQAENQDPDIKAHVNSLGENLKTLRLRLRRCHRFLPCENKSKAVEQVKNAFNKLQEKGIYKAMSCFDIFINYIEAYMTMKIRN
modifications: R4-12 on Cys 142
notes: mature
B14: IL-10 Arg159Cys-S48 (ligand, human, UniProt P22301 19-178, looked up)
chain: SPGQGTQSENSCTHFPGNLPNMLRDLRDAFSRVKTFFQMKDQLDNLLLKESLLEDFKGYLGCQALSEMIQFYLEEVMPQAENQDPDIKAHVNSLGENLKTLRLRLRRCHRFLPCENKSKAVEQVKNAFNKLQEKGIYKAMSEFDIFINYIEAYMTMKICN
modifications: S48 on Cys 159
notes: mature
B15: IL-10 Asp41Cys-S48 (ligand, human, UniProt P22301 19-178, looked up)
chain: SPGQGTQSENSCTHFPGNLPNMLRDLRDAFSRVKTFFQMKCQLDNLLLKESLLEDFKGYLGCQALSEMIQFYLEEVMPQAENQDPDIKAHVNSLGENLKTLRLRLRRCHRFLPCENKSKAVEQVKNAFNKLQEKGIYKAMSEFDIFINYIEAYMTMKIRN
modifications: S48 on Cys 41
notes: mature
B16: IL-10 Asp44Cys-R4-11 (ligand, human, UniProt P22301 19-178, looked up)
chain: SPGQGTQSENSCTHFPGNLPNMLRDLRDAFSRVKTFFQMKDQLCNLLLKESLLEDFKGYLGCQALSEMIQFYLEEVMPQAENQDPDIKAHVNSLGENLKTLRLRLRRCHRFLPCENKSKAVEQVKNAFNKLQEKGIYKAMSEFDIFINYIEAYMTMKIRN
modifications: R4-11 on Cys 44
notes: mature
B17: IL-10 Asp144Cys-S48 (ligand, human, UniProt P22301 19-178, looked up)
chain: SPGQGTQSENSCTHFPGNLPNMLRDLRDAFSRVKTFFQMKDQLDNLLLKESLLEDFKGYLGCQALSEMIQFYLEEVMPQAENQDPDIKAHVNSLGENLKTLRLRLRRCHRFLPCENKSKAVEQVKNAFNKLQEKGIYKAMSEFCIFINYIEAYMTMKIRN
modifications: S48 on Cys 144
notes: mature
B18: IL-10 Asp144Cys-R4-11 (ligand, human, UniProt P22301 19-178, looked up)
chain: SPGQGTQSENSCTHFPGNLPNMLRDLRDAFSRVKTFFQMKDQLDNLLLKESLLEDFKGYLGCQALSEMIQFYLEEVMPQAENQDPDIKAHVNSLGENLKTLRLRLRRCHRFLPCENKSKAVEQVKNAFNKLQEKGIYKAMSEFCIFINYIEAYMTMKIRN
modifications: R4-11 on Cys 144
notes: mature
B19: IL-10 Glu50Cys-R4-12 (ligand, human, UniProt P22301 19-178, looked up)
chain: SPGQGTQSENSCTHFPGNLPNMLRDLRDAFSRVKTFFQMKDQLDNLLLKCSLLEDFKGYLGCQALSEMIQFYLEEVMPQAENQDPDIKAHVNSLGENLKTLRLRLRRCHRFLPCENKSKAVEQVKNAFNKLQEKGIYKAMSEFDIFINYIEAYMTMKIRN
modifications: R4-12 on Cys 50
notes: mature
B20: IL-10 Asp44Cys-S48 (ligand, human, UniProt P22301 19-178, looked up)
chain: SPGQGTQSENSCTHFPGNLPNMLRDLRDAFSRVKTFFQMKDQLCNLLLKESLLEDFKGYLGCQALSEMIQFYLEEVMPQAENQDPDIKAHVNSLGENLKTLRLRLRRCHRFLPCENKSKAVEQVKNAFNKLQEKGIYKAMSEFDIFINYIEAYMTMKIRN
modifications: S48 on Cys 44
notes: mature
B21: IL-10 Asn45Cys-S48 (ligand, human, UniProt P22301 19-178, looked up)
chain: SPGQGTQSENSCTHFPGNLPNMLRDLRDAFSRVKTFFQMKDQLDCLLLKESLLEDFKGYLGCQALSEMIQFYLEEVMPQAENQDPDIKAHVNSLGENLKTLRLRLRRCHRFLPCENKSKAVEQVKNAFNKLQEKGIYKAMSEFDIFINYIEAYMTMKIRN
modifications: S48 on Cys 45
notes: mature
B22: IL-10 Asn148Cys-S48 (ligand, human, UniProt P22301 19-178, looked up)
chain: SPGQGTQSENSCTHFPGNLPNMLRDLRDAFSRVKTFFQMKDQLDNLLLKESLLEDFKGYLGCQALSEMIQFYLEEVMPQAENQDPDIKAHVNSLGENLKTLRLRLRRCHRFLPCENKSKAVEQVKNAFNKLQEKGIYKAMSEFDIFICYIEAYMTMKIRN
modifications: S48 on Cys 148
notes: mature
B23: IL-10 Asp28Cys-S48 (ligand, human, UniProt P22301 19-178, looked up)
chain: SPGQGTQSENSCTHFPGNLPNMLRDLRCAFSRVKTFFQMKDQLDNLLLKESLLEDFKGYLGCQALSEMIQFYLEEVMPQAENQDPDIKAHVNSLGENLKTLRLRLRRCHRFLPCENKSKAVEQVKNAFNKLQEKGIYKAMSEFDIFINYIEAYMTMKIRN
modifications: S48 on Cys 28
notes: mature
B24: IL-10 Glu50Cys-S48 (ligand, human, UniProt P22301 19-178, looked up)
chain: SPGQGTQSENSCTHFPGNLPNMLRDLRDAFSRVKTFFQMKDQLDNLLLKCSLLEDFKGYLGCQALSEMIQFYLEEVMPQAENQDPDIKAHVNSLGENLKTLRLRLRRCHRFLPCENKSKAVEQVKNAFNKLQEKGIYKAMSEFDIFINYIEAYMTMKIRN
modifications: S48 on Cys 50
notes: mature
B25: IL-10 Arg159Cys-R4-20 (ligand, human, UniProt P22301 19-178, looked up)
chain: SPGQGTQSENSCTHFPGNLPNMLRDLRDAFSRVKTFFQMKDQLDNLLLKESLLEDFKGYLGCQALSEMIQFYLEEVMPQAENQDPDIKAHVNSLGENLKTLRLRLRRCHRFLPCENKSKAVEQVKNAFNKLQEKGIYKAMSEFDIFINYIEAYMTMKICN
modifications: R4-20 on Cys 159
notes: mature

Molecular target: T1, IL-10R1-Fc
Assay: ELISA, IL-10R1-Fc coated

Point of comparison: B2, “Binding recovery (>60%)” value 97.7%. Against it:
- B1 — higher, 101%
- B4 — lower, 92.3%
- B5 — lower, 90%
- B6 — lower, 95.2%
- B8 — lower, 84.3%
- B10 — lower, 87%
- B11 — lower, 97.1%
- B12 — lower, 86.6%
- B13 — lower, 78%
- B16 — lower, 92.1%
- B18 — lower, 90.5%
- B19 — higher, 99.8%
- B25 — higher, 99%

Point of comparison: B3, “Decreased fold of binding to ligand after Conjugating with S48” value 18 fold. Against it:
- B7 — lower, 12 fold
- B9 — higher, 52 fold
- B14 — lower, 3 fold
- B15 — lower, 13 fold
- B17 — lower, 15 fold
- B20 — higher, 43 fold
- B21 — lower, 7 fold
- B22 — lower, 10 fold
- B23 — higher, 30 fold
- B24 — lower, 4 fold
